Reference: paper PMC11840927, “Frataxin Traps Low Abundance Quaternary Structure to Stimulate Human Fe–S Cluster Biosynthesis” (Biochemistry, 2025)

Molecular target: T1, NFS1(Δ1–55)-ISD11(S11A)-ACPec complex with N-terminal His6 tag on NFS1 (human | Escherichia coli, UniProt Q9Y697 56-457; Q9HD34 1-91; P0A6A8 1-78, S11A, covalently attached PLP | acyl-4′PPT (assumed mass 523 Da))
T1 construct: NFS1, human cysteine desulfurase, Δ1–55 (residues 56 to the C-terminus); ISD11 (LYRM superfamily), human, S11A; Escherichia coli acyl-carrier protein (ACPec) associated with NFS1-ISD11; Used uniformly 14N or 15N labelled in the exchange experiments; Calculated masses excluded the N-terminal methionine if present; also called SDAec; His-tagged SDAec; not shown: His6, N-terminal, kept; copies: 2 + …
Experiment: native MS; complexes formed before the exchange reaction: SDAec with ISCU2 (1:3) or ISCU2 and FXN (1:3:3), IscS with IscU (1:3), 30 min, room temperature, EMR Orbitrap
Settings: both partners purified

Row | Binder | binding result
1 | ISCU2 (Δ1–35) (natural protein, human, UniProt Q9H1K1-1 36-167, looked up, ISCU2, human Fe–S cluster scaffold protein, Δ1–35 (residues 36 to the C-terminus); Two constructs were made, ISCU2-TEV-GST and ISCU2-TEV-GST-His6; Residues of the TEV site may remain at the C-terminus after cleavage (surmised); also called scaffold protein; source: E. coli BL21(DE3), purified (GST column, TEV digestion, Ni-NTA, cation exchange, Sephacryl S100); not shown: GST, C-terminal, cleaved) HKKVVDHYENPRNVGSLDKTSKNVGTGLVGAPACGDVMKLQIQVDEKGKIVDARFKTFGCGSAIASSSLATEWVKGKTVEEALTIKNTDIAKELCLPPVKLHCSMLAEDAIKAALADYKLKQEPKKGEAEKK | binds
2 | FXN (Δ1–81) (natural protein, human, UniProt Q16595 82-210, looked up, frataxin (FXN), human, Δ1–81 (residues 82 to the C-terminus); also called frataxin) GTLGHPGSLDETTYERLAEETLDSLAEFFEDLADKPYTFEDYDVSFGSGVLTVKLGGDLGTYVINKQTPNKQIWLSSPSSGPKRYDWTGKNWVYSHDGVSLHELLAAELTKALKTKLDLSSLAYSGKDA | binds
